The supplement of paper PMC7125110
± gives the standard error. For some assays here: Fewer inactive variants are shown than the library holds.

B1: glmS ribozyme (parent)
chain: AUAAAAGCGCCAGAACUACAGAAAUGUAGUUGACGAGGAGGAGGUUUAUCGAAUUUUCGGCGGAUGCCUCCAAA

How the values were obtained:
Settings in all cases: with glucosamine-6-phosphate
glucosamine-6-phosphate [1] = variants of: B1; assay: kcat; higher = faster cleavage; RNA array
How it was run: (§1)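 The measurements used barcoded ribozyme variants on sequenced MiSeq chips, transcribed in situ by E. coli RNA polymerase and tracked at 37 °C with a hybridised Cy3 probe. Glucosamine-6-phosphate, 40 μM to 10 mM in HEPES/KCl/Mg(OAc)2 buffer, was flowed in while tiles were imaged over ~14 h. Baseline-normalised signals, also normalised to non-cleaving reference variants, gave per-tile medians that were fit to one- or two-exponential decays for kobs. kcat and KM resulted from weighted Michaelis–Menten fits across concentrations.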

glucosamine-6-phosphate [2] = variants of: B1; assay: self-cleavage kobs at 160 uM GlcN6P; higher = faster cleavage; RNA array
How it was run: as §1

glucosamine-6-phosphate [3] = variants of: B1; assay: self-cleavage kobs at 640 uM GlcN6P; higher = faster cleavage; RNA array
How it was run: as §1

glucosamine-6-phosphate [4] = variants of: B1; assay: KM; higher = weaker cofactor use; RNA array
How it was run: as §1

glucosamine-6-phosphate [5] = variants of: B1; assay: self-cleavage kobs at 40 uM GlcN6P; higher = faster cleavage; RNA array
How it was run: as §1

glucosamine-6-phosphate [6] = variants of: B1; assay: self-cleavage kobs at 2500 uM GlcN6P; higher = faster cleavage; RNA array
How it was run: as §1

glucosamine-6-phosphate [7] = variants of: B1; assay: self-cleavage kobs at 10000 uM GlcN6P; higher = faster cleavage; RNA array
How it was run: as §1

| Variant | kcat (glucosamine-6-phosphate [1]) [s⁻¹] | self-cleavage kobs at 160 uM GlcN6P (glucosamine-6-phosphate [2]) [s⁻¹] | self-cleavage kobs at 640 uM GlcN6P (glucosamine-6-phosphate [3]) [s⁻¹] | KM (glucosamine-6-phosphate [4]) [µM] | self-cleavage kobs at 40 uM GlcN6P (glucosamine-6-phosphate [5]) [s⁻¹] | self-cleavage kobs at 2500 uM GlcN6P (glucosamine-6-phosphate [6]) [s⁻¹] | self-cleavage kobs at 10000 uM GlcN6P (glucosamine-6-phosphate [7]) [s⁻¹] |
| --- | --- | --- | --- | --- | --- | --- | --- |
| AUAAAAGCGCCAGAACUACAGAAAUGUAGUUUACGAGGAGGAGGUUUAUCGAAUUUUCGGCGGUUGCCUCCAAA | < 1e-05 | < 1e-05 | < 1e-05 |  |  |  |  |
| AUAAAAGCGCCAGAACUACAGAAAUGUAGUUGACGAGGAGGUGGUUUAUCGAAUUUUCGGCGGAUGACUCCAAA | 0.00217 ± 0.00044 | 0.000151 ± 3.4e-05 | 0.00067 ± 9.7e-05 | 1400 ± 460 | 7.75e-05 ± 9.8e-06 | 0.00183 ± 0.00029 | 0.00183 ± 0.00019 |
| AUAAAAGCGCCAGAACUACAGAAAUGUAGUUAACGAGGAGGAGGUUUAUCGAAUUUUCGGCGGCUGCCUCCAAA | 1.13e-05 ± 9e-07 |  |  | 1760 ± 490 |  |  |  |
| AUAAAAGCGCCAGAACUACAGAAAUGUAGUAGACGAGGAGGAGGUUUAUCGAAUUUUCUGCGGAUGCCUCCAAA | 3.57e-05 ± 2.2e-06 |  |  | 2240 ± 490 |  |  |  |
| AUAAAAGCGCCACAACUACAGAAAUGUAGUUCACGAGGAGGAGGUUUAUCGAAUUUUCGGCGGAUGCCUCCAAA | 0.000728 ± 0.00016 | 4.58e-05 ± 1.6e-05 | 0.000109 ± 2.2e-05 | 3050 ± 1200 |  | 0.000408 ± 7e-05 | 0.000534 ± 7.8e-05 |
| AUAAAUGCGCCAGAACUACAGAAAUGUAGUUGACGAGGAGGAGGUUUAUCGAACUUUCGGCGGAUGCCUCCAAA | 0.000261 ± 4.2e-05 |  | 5.25e-05 ± 1.2e-05 | 2260 ± 670 |  | 0.000165 ± 3.3e-05 | 0.000195 ± 4.6e-05 |
| AUAAAAGCGCCAGAACUACAGAAAUGUAGUUGACGAGGAGGAGGUUUAUUGAAUUUCCGGCGGAUGCCUCCAAA | < 1e-05 | < 1e-05 |  |  | < 1e-05 |  |  |
| AUAAAAGCGCCAGAACUACAGAAAUGUAAUUGACGAGGAGGAGGUUUAUCGAAUUAUCGGCGGAUGCCUCCAAA | 0.00321 ± 0.0012 | 0.000108 ± 2.2e-05 | 0.000389 ± 7.9e-05 |  | 4.94e-05 ± 9.7e-06 | 0.000941 ± 0.00015 | 0.00255 ± 0.00036 |
| AUAAAAGCGCCAGAACUACAGAAAUGUAGUUGACGAGGUGGAGGUUUAUCGAAUUUUCGGCGGAUGCCGCCAAA | 6.87e-05 ± 1e-05 |  | 4.85e-05 ± 1.5e-05 |  |  | 4.76e-05 ± 1.3e-05 | 7.29e-05 ± 1.5e-05 |
| AUAAAAGCGCCAUAACUACAGAAAUGUAGUUGACGAGGAGGAGGUUUAUCGAAUUUUCGGCGGAUGCCUCCAAA | 0.00254 ± 0.00046 | 0.000104 ± 3.4e-06 | 0.000355 ± 7.3e-06 | 3670 ± 840 | 3.52e-05 ± 1.3e-06 | 0.00118 ± 5e-05 | 0.00186 ± 5.8e-05 |
| AUAAAAGCGCCAGAACUACAGAAAUGUAGUUGACGAGGAGGAGGUUUAUCGAAUUUUCGGCGGAUGGCACCAAA | 1.14e-05 ± 5.3e-06 |  |  |  |  |  |  |
| AUAAAAGCGCCAGAACUACAGAAAUGUAGUUGACGAGGAGGAGGCUUAUCGAAUUUUCGGCGGAUGCCUUCAAA | 0.0085 ± 0.0033 | 0.000303 ± 4.5e-05 | 0.000855 ± 0.00011 | 4580 ± 2200 | 0.000103 ± 1.3e-05 | 0.00283 ± 0.00041 | 0.00646 ± 0.00093 |
| AUAAAAGCGCCAGAACUACAGAAAUGUAGUUGACGAGGAGGAGGUUUUUCGAAUUUGCGGCGGAUGCCUCCAAA | < 1e-05 | < 1e-05 |  |  | < 1e-05 |  | < 1e-05 |
| AUAAAAACGCCAGAACUACAGAAAUGUAGUUGACGAGGAGGAGGUUUAUCGAAUUUUCGGCGGAUGCCACCAAA | 1.56e-05 ± 3.6e-06 |  |  |  |  |  |  |
| AUAAAAGCGCCAGAACUACAGAAAUGUAAUUGACGAGGAGGAGGUUUAUCGAAUUUUCGGCGCAUGCCUCCAAA | < 1e-05 |  |  |  | < 1e-05 | < 1e-05 | < 1e-05 |
| AUAAAAACGCCAGAAGUACAGAAAUGUAGUUGACGAGGAGGAGGUUUAUCGAAUUUUCGGCGGAUGCCUCCAAA | < 1e-05 | < 1e-05 |  |  | < 1e-05 | < 1e-05 | < 1e-05 |
| AUAAAAGCGCCAGAACUACAGAAAUGUAGUUGACGAGGAGGAGGUUUAUCGAAUUUUCGGCGAAUGCCACCAAA | 4.23e-05 ± 1.2e-05 | 5.41e-05 ± 2e-05 |  |  |  |  |  |
| AUAAAAGCGCCAGAACUACAGAAAUGUAGUUGACGAGGAGGAGGUUUAUCGAGUUUUCGGCGGUUGCCUCCAAA | 0.000128 ± 1e-05 |  | 3.12e-05 ± 9.7e-06 | 2590 ± 630 |  | 5.65e-05 ± 1.1e-05 | 0.000103 ± 9.5e-06 |
